Reference: PMC9357107

Legend:
[1] = target: linker domain of human IGFBP2 (L-hIGFBP2; residues A97-C191) (human); experiment: NMR titration
[2] = target: insulin-like growth factor 1 (IGF-1) (human) (UniProt P05019); experiment: SPR
[3] = target: insulin-like growth factor 2 (IGF-2) (human) (UniProt P01344); experiment: SPR
Chain of UniProt P01344 (P01344 25-91): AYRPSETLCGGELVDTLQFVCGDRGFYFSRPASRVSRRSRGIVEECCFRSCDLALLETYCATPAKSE

stoichiometry N [1] | Kd [2] [µM] | Kd [3] [µM] | Substance
1 | – | – | insulin-like growth factor 1 (IGF-1) (from UniProt P05019 49-118) (ligand)
– | 4.1 | 3.7 | linker domain of human IGFBP2 (L-hIGFBP2; residues A97-C191) (domain or fragment)
